Measurements reported in the Immune Epitope Database (IEDB).
Each block holds one sequence with its values, some of them ahead of it.

Assays:
HLA-A*02:01 [1] = test: IEDB peptide-MHC binding, purified MHC/competitive/radioactivity; ≥ and ≤ were set here for values at or beyond the usual limits of such assays
HLA-A*26:02 [2] = test: IEDB peptide-MHC binding, purified MHC/direct/fluorescence; filed as Kd, often an IC50 or EC50 that approximates it; ≥ and ≤ were set here for values at or beyond the usual limits of such assays; details: source organism: Dengue virus 2 Thailand/16681/84
HLA-B*57:01 [3] = test: IEDB peptide-MHC binding, purified MHC/competitive/fluorescence; filed as Kd, often an IC50 or EC50 that approximates it; ≥ and ≤ were set here for values at or beyond the usual limits of such assays; details: source organism: Human immunodeficiency virus 1
HLA-A*01:01 [4] = test: as above; details: source organism: Human immunodeficiency virus 1
HLA-A*02:03 = test: as above; details: source organism: Human immunodeficiency virus 1
HLA-B*15:01 [5] = test: as above; details: source organism: Human immunodeficiency virus 1
HLA-A*30:01 = test: as above
HLA-A*02:06 = test: as above
HLA-A*11:01 [6] = test: as above
HLA-B*18:01 = test: as above; details: source organism: Human immunodeficiency virus 1
HLA-A*26:02 [7] = test: as above; details: source organism: Human immunodeficiency virus 1
HLA-B*15:17 = test: as above
HLA-B*83:01 = test: as above
HLA-A*02:01 [8] = test: as above; details: source organism: Mycobacterium tuberculosis variant bovis BCG str. Pasteur 1173P2
HLA-B*45:06 = test: as above
HLA-B*08:01 = test: as above; details: source organism: Mycobacterium tuberculosis variant bovis BCG str. Pasteur 1173P2
HLA-B*15:42 = test: as above
HLA-B*57:01 [9] = test: IEDB peptide-MHC binding, purified MHC/direct/fluorescence; filed as Kd, often an IC50 or EC50 that approximates it; ≥ and ≤ were set here for values at or beyond the usual limits of such assays; details: source organism: Mycobacterium tuberculosis
HLA-A*01:01 [10] = test: as above; details: source organism: Mycobacterium tuberculosis
HLA-B*58:01 = test: as above
HLA-A*31:01 = test: as above
HLA-B*48:01 = test: as above; details: source organism: Mycobacterium tuberculosis
HLA-B*27:05 = test: as above
HLA-B*40:01 = test: as above; details: source organism: Mycobacterium tuberculosis
HLA-A*03:01 = test: as above
HLA-B*15:01 [11] = test: as above
HLA-B*39:01 = test: as above; details: source organism: Mycobacterium tuberculosis str. Haarlem
HLA-B*46:01 = test: as above; details: source organism: Mycobacterium tuberculosis
HLA-B*51:01 = test: as above; details: source organism: Mycobacterium tuberculosis
HLA-A*11:01 [12] = test: as above
HLA-A*69:01 = test: as above
HLA-A*32:07 = test: IEDB peptide-MHC binding, purified MHC/competitive/fluorescence; filed as Kd, often an IC50 or EC50 that approximates it; ≥ and ≤ were set here for values at or beyond the usual limits of such assays
HLA-C*03:03 = test: IEDB peptide-MHC binding, purified MHC/direct/fluorescence; filed as Kd, often an IC50 or EC50 that approximates it; ≥ and ≤ were set here for values at or beyond the usual limits of such assays; details: source organism: Homo sapiens
HLA-C*06:02 = test: as above
HLA-A*02:01 [13] = test: as above; details: source organism: Homo sapiens
HLA-B*07:02 = test: as above; details: source organism: Homo sapiens
HLA-C*14:02 [14] = test: as above; details: source organism: Yellow fever virus
HLA-C*15:02 = test: as above
HLA-C*14:02 [15] = test: IEDB peptide-MHC binding, purified MHC/competitive/fluorescence; filed as Kd, often an IC50 or EC50 that approximates it; ≥ and ≤ were set here for values at or beyond the usual limits of such assays; details: source organism: Bacillus cereus G9241
HLA-A*24:03 = test: as above; details: source organism: Bacillus cereus G9241
[16] = source organism: Human immunodeficiency virus 1
[17] = source organism: Mycobacterium tuberculosis variant bovis BCG str. Pasteur 1173P2
[18] = source organism: Mycobacterium tuberculosis
[19] = source organism: Yellow fever virus
[20] = source organism: Bacillus cereus G9241

IC50 (HLA-A*02:01 [1]; source organism: Homo sapiens): 100 nM
Sequence: ALSRKVAEL

IC50 (HLA-A*02:01 [1]; source organism: Homo sapiens): ≥ 20000 nM
Sequence: CISSCNPNP

Sequence: EYTDYMPSM
Kd (HLA-A*26:02 [2]): 26 nM

Sequence: IMDKNIILKA
IC50 (HLA-A*02:01 [1]; source organism: Influenza A virus (A/Puerto Rico/8/1934(H1N1))): 43000 nM

Sequence: KSLYNTIATLY
Kd (HLA-B*57:01 [3]): 652 nM
Kd (HLA-A*01:01 [4]): 2910 nM
Kd (HLA-A*02:03): ≥ 20000 nM
Kd (HLA-B*15:01 [5]): ≥ 20000 nM
Kd (HLA-A*30:01; [16]): ≥ 20000 nM
Kd (HLA-A*02:06; [16]): 2020 nM
Kd (HLA-A*11:01 [6]; [16]): 697 nM
Kd (HLA-B*18:01): 346 nM
Kd (HLA-A*26:02 [7]): 1060 nM
Kd (HLA-B*15:17; [16]): 12.6 nM

Sequence: RPRLHSISF
Kd (HLA-B*83:01; [17]): 45 nM
Kd (HLA-A*02:01 [8]): ≥ 20000 nM
Kd (HLA-B*45:06; [17]): ≥ 5000 nM
Kd (HLA-A*30:01; [17]): ≥ 20000 nM
Kd (HLA-A*02:06; [17]): ≥ 20000 nM
Kd (HLA-B*08:01): 15.9 nM
Kd (HLA-B*15:42; [17]): ≥ 5000 nM
Kd (HLA-B*15:17; [17]): ≥ 20000 nM
Kd (HLA-B*57:01 [9]): ≥ 20000 nM
Kd (HLA-A*01:01 [10]): 1310 nM
Kd (HLA-B*58:01; [18]): ≥ 20000 nM
Kd (HLA-A*31:01; [18]): ≥ 20000 nM
Kd (HLA-B*48:01): ≥ 20000 nM
Kd (HLA-B*27:05; [18]): ≥ 20000 nM
Kd (HLA-B*40:01): ≥ 20000 nM
Kd (HLA-A*03:01; [18]): ≥ 20000 nM
Kd (HLA-B*15:01 [11]; [18]): 79 nM
Kd (HLA-B*39:01): ≥ 20000 nM
Kd (HLA-B*46:01): ≥ 20000 nM
Kd (HLA-B*51:01): ≥ 20000 nM
Kd (HLA-A*11:01 [12]; [18]): ≥ 20000 nM
Kd (HLA-A*69:01; [18]): ≥ 20000 nM

Sequence: RTMEVFTMY
Kd (HLA-A*11:01 [6]; source organism: Yersinia pestis Nepal516): 3.3 nM

IC50 (HLA-A*02:01 [1]; source organism: Homo sapiens): 793 nM
Sequence: RTYSGPMNKV

Kd (HLA-B*83:01; source organism: Homo sapiens): 9340 nM
Kd (HLA-B*45:06; source organism: Homo sapiens): ≥ 5000 nM
Kd (HLA-A*32:07; source organism: Homo sapiens): 21.9 nM
Kd (HLA-B*15:42; source organism: Homo sapiens): ≥ 20000 nM
Kd (HLA-B*58:01; source organism: Homo sapiens): 304 nM
Kd (HLA-C*03:03): 113 nM
Kd (HLA-A*31:01; source organism: Homo sapiens): 143 nM
Kd (HLA-B*27:05; source organism: Homo sapiens): 2170 nM
Kd (HLA-C*06:02; source organism: Homo sapiens): 49 nM
Kd (HLA-A*02:01 [13]): 15600 nM
Kd (HLA-A*03:01; source organism: Homo sapiens): 775 nM
Kd (HLA-B*15:01 [11]; source organism: Homo sapiens): 102 nM
Kd (HLA-B*07:02): 232 nM
Kd (HLA-A*11:01 [12]; source organism: Homo sapiens): 1000 nM
Kd (HLA-A*69:01; source organism: Homo sapiens): 130 nM
Sequence: RVMAPRALL

Sequence: RWFVRNPFF
Kd (HLA-B*83:01; [19]): ≥ 5000 nM
Kd (HLA-B*45:06; [19]): ≥ 5000 nM
Kd (HLA-B*15:42; [19]): ≥ 5000 nM
Kd (HLA-C*14:02 [14]): 278 nM
Kd (HLA-C*06:02; [19]): ≥ 20000 nM
Kd (HLA-C*15:02; [19]): ≥ 20000 nM

Sequence: YYKKTFSAL
Kd (HLA-C*14:02 [15]): 0.4 nM
Kd (HLA-A*24:03): ≤ 0.1 nM
Kd (HLA-B*83:01; [20]): ≥ 5000 nM
Kd (HLA-B*45:06; [20]): ≥ 5000 nM
Kd (HLA-A*32:07; [20]): 29 nM
Kd (HLA-B*15:42; [20]): ≥ 5000 nM
Kd (HLA-C*06:02; [20]): 1660 nM
Kd (HLA-C*15:02; [20]): ≥ 20000 nM
